B1: AIMP2-DX2 epitope peptide (amino acid residues 42 to 52, GHVQDYGALKD, of the AIMP2-DX2 protein) (peptide)
peptide: GHVQDYGALKD
B3: H5 Fab (Fab, V domains shown)
VH: QEQLVESGGGLVTPGGTLTLTCTASGFTISSYHMTWVRQAPGKGLEWIGVISNSGGTSYANWAKGRFTISKTSTTVDLKITSPTTEDTATYFCVRGVPGINSNLWGQGTLVTISS
VL: AQVLTQTPSSVSAAVGGTVTINCQSSQSVYSGNWLAWYQQKPGQPPKLLIYSTSTLASGVPSRFKGSGSGTQFTLTVSDLECDDAATYYCAGDYDGYKNAFGGGTKVVVKR
notes: Detected with anti-HA tag or anti-human Fab antibody, so vector tags may be present; they are not described; also called antibody fragment H5 Fab; antibody (Fab) of colon H5

What was measured:
H5 Fab = target: B3; experiment: antigen pre-adsorption, 100 µg/ml peptide with H5 Fab, Western blot of H460 lysate (FIG. 18)
Procedure: Firstly, antigen pre-adsorption analysis was conducted in order to confirm whether the prepared H5 Fab specifically binds to the AIMP2-DX2. After electrophoresis of cell lysates of H460 lung cancer cells which expressed the AIMP2-DX2, Western blot analysis was performed using a H5 Fab in the presence of 100 μg/ml of the AIMP2-DX2 epitope polypeptide ([…]) (indicated as “+” in FIG. 18) and a H5 Fab without the addition of the AIMP2-DX2 epitope peptide (indicated as “−” in FIG. 18), respectively.

FUSE-binding protein = target: T1, FUSE-binding protein (UniProt Q96AE4 1-644, limits assumed); experiment: yeast two hybrid (FIG. 4e)
T1 construct: Yeast two hybrid fusion; construct not described; also called FBP
T1 sequence (looked up): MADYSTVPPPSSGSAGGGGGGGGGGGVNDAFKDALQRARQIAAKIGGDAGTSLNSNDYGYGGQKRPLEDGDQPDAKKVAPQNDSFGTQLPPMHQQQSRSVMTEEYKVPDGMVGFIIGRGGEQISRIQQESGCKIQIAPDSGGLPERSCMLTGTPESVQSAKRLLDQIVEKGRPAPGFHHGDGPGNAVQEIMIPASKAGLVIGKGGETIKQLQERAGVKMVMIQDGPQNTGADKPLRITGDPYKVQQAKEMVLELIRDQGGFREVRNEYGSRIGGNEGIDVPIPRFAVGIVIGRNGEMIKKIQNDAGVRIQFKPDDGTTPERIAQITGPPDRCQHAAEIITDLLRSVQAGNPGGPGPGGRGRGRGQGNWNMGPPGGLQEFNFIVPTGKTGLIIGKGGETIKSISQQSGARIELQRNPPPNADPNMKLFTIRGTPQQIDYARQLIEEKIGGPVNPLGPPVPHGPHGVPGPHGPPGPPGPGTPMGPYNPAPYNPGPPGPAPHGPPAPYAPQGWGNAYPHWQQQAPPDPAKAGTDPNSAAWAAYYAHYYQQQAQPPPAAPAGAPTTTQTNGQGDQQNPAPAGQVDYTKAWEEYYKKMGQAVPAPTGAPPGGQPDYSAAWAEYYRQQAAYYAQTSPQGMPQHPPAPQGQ

Smad2 (human) = target: T2, Smad2 (human) (human, UniProt Q15796 1-467, limits assumed); experiment: yeast two hybrid (FIG. 4e)
T2 construct: LexA fusion (pEG202) in yeast two hybrid; also called R-Smad2; Lex-Smad2
T2 sequence (Q15796 whole entry, the tested form may be a part): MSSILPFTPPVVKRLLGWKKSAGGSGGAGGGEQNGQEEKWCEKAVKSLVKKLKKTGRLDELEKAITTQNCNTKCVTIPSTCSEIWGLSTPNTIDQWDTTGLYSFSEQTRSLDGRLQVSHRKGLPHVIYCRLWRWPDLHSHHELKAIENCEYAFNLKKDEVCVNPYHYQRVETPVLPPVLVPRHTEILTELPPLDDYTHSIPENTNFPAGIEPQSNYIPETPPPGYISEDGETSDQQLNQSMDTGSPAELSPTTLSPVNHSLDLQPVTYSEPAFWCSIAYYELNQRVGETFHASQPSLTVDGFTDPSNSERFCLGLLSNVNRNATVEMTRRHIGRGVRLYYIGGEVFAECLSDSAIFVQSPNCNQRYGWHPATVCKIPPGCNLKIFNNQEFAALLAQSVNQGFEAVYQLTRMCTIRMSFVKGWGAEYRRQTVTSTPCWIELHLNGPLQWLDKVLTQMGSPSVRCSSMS

[1] = target: T3, AIMP2-DX2 with twenty three (23) N-terminal amino acids deleted, fused with strep tag (human, UniProt Q13155 24-320); experiment: Western blot of HEK293T lysates (FIG. 20a)
T3 construct: Expressed in HEK293T cells, tested in cell lysate; also called Δ23-DX2; Δ23; not shown: strep tag of thirty amino acids including a linker peptide
T3 sequence: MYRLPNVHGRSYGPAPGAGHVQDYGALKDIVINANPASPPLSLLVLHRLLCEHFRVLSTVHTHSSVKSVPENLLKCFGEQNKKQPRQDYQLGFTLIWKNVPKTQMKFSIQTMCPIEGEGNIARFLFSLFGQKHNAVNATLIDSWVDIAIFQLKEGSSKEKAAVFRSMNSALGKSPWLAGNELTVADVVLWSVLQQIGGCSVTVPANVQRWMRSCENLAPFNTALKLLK
Excerpt: (§1) FIG. 20a and FIG. 20b show a test result of determining the effect of N-terminal amino acid deletion of the AIMP2-DX2 protein on the binding between the H5 Fab and the AIMP2-DX2 protein. […] Being fused with strep tag, the AIMP2-DX2 proteins expressed in HEK293T cells were the full-length AIMP2-DX2 protein (“F-DX2” or “F”) and its N-terminal deleted isotypes (“42-DX2” or “42” for two (2) amino acid deletion; “423-DX2” or “423” for twenty three (23) amino acid deletion; “433-DX2” or “433” for thirty three (33) amino acid deletion), respectively. […] “EV” means an empty vector.
(§2) Further, the effect of N-terminal amino acid deletion of the AIMP2-DX2 protein on the binding between H5 Fab and AIMP2-DX2 protein was analyzed (See FIG. 20). It was reported that N-terminal amino acid residues of the AIMP2-DX2 exert a significant effect on the solubility of the AIMP2-DX2. AIMP2-DX2 derivatives in which the N-terminal two (2), twenty three (23) or thirty three (33) amino acid residues were deleted, respectively, were prepared (See FIG. 20b). The full-length AIMP2-DX2 and its isotypes were fused with strep tag and then expressed in the HEK293T cells, followed by Western blot analysis using H5 Fab.

[2] = target: T4, AIMP2-DX2 with two (2) N-terminal amino acids deleted, fused with strep tag (human, UniProt Q13155 3-320); experiment: Western blot of HEK293T lysates (FIG. 20a)
T4 construct: Expressed in HEK293T cells, tested in cell lysate; also called Δ2-DX2; Δ2; not shown: strep tag of thirty amino acids including a linker peptide
T4 sequence: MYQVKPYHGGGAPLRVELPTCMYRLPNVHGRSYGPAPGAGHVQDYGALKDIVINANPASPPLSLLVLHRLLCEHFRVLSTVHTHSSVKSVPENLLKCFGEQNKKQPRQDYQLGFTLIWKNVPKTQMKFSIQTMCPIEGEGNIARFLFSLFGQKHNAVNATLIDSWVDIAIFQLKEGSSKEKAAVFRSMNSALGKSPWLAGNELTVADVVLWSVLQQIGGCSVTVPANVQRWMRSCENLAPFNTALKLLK
Excerpt: as §1, §2

[3] = target: T5, AIMP2-DX2 with thirty three (33) N-terminal amino acids deleted, fused with strep tag (human, UniProt Q13155 34-320); experiment: Western blot of HEK293T lysates (FIG. 20a)
T5 construct: Expressed in HEK293T cells, tested in cell lysate; also called Δ33-DX2; Δ33; not shown: strep tag of thirty amino acids including a linker peptide
T5 sequence: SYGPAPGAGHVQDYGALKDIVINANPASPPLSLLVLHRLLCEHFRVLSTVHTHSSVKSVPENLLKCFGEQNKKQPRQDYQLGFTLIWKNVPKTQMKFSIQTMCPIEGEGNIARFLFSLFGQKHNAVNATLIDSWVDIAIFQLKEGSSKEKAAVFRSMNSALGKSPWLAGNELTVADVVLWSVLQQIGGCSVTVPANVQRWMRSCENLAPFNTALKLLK
Excerpt: as §1, §2

[4] = target: T6, AIMP2 protein (wild type, full-length) (human, UniProt Q13155 1-312, limits assumed); experiment: Western blot of H460 cell lysates (FIG. 22)
T6 construct: 217 is written here; B42 fusion (pJG4-5) in yeast two hybrid; 35S-labelled in vitro translation product in the pull-down; endogenous in A549, DU145 and H460 cells; also called AIMP2-F; p38
T6 sequence: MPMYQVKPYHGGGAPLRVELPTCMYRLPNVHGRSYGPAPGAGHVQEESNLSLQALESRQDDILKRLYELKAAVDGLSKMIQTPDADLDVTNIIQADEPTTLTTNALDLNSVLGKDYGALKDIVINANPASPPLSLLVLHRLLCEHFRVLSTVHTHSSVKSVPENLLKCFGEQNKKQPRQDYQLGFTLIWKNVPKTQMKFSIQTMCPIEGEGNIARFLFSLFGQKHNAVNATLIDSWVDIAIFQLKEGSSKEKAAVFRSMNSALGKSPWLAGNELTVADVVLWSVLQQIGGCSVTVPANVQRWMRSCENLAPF
Procedure: Lastly, it was tested whether H5 antibody is capable of differentiating AIMP2-DX2 from wild type AIMP2 protein (See FIG. 22). Western blot analysis was performed on H460 cell lysates using the H5 antibody.

[5] = target: B1; experiment: surface plasmon resonance, H5 IgG on CM5 chip, peptide in flow (FIG. 21a)
Excerpt: H5 antibody and IgG proteins were coated on the CM5 chips, while the exemplary AIMP2-DX2 epitope peptide (i.e. amino acid residues 42 to 52 ([…]) as shown in SEQ ID NO: 2 or SEQ ID NO: 17) at various concentrations was flowed over the chip. As shown in FIG. 21a and FIG. 21b, the binding affinity between H5 IgG antibody and the AIMP2-DX2 epitope peptide was indicated in sensorgram. X axis of sensorgram indicates time (second, s), while y axis means response (response unit, RU). The description in a box indicates a concentration of the AIMP2-DX2 epitope peptide in nM.
Still further, the binding affinity between H5 IgG antibody and the exemplary AIMP2-DX2 epitope peptide was determined by using surface plasmon resonance analysis (See FIG. 21). The H5 antibody (IgG) and IgG proteins were coated on the CM5 chips, while the exemplary AIMP2-DX2 epitope peptide at various concentrations was flowed over the chip to monitor the real time association and dissociation between H5 antibody and the exemplary AIMP2-DX2 epitope peptide. Analysis reagents and buffer were injected at the flow velocity of 15 μl/min. for 6 min, followed by washing for 20 min. Analysis was performed in sensorgram in which a response result of a blank without protein coating is subtracted from a response results between H5 antibody or IgG and the AIMP2-DX2 epitope peptides.

Binder: B1
- binding result (H5 Fab): binds

B2: AIMP2-DX2 protein (other)
chain: MPMYQVKPYHGGGAPLRVELPTCMYRLPNVHGRSYGPAPGAGHVQDYGALKDIVINANPASPPLSLLVLHRLLCEHFRVLSTVHTHSSVKSVPENLLKCFGEQNKKQPRQDYQLGFTLIWKNVPKTQMKFSIQTMCPIEGEGNIARFLFSLFGQKHNAVNATLIDSWVDIAIFQLKEGSSKEKAAVFRSMNSALGKSPWLAGNELTVADVVLWSVLQQIGGCSVTVPANVQRWMRSCENLAPFNTALKLLK
notes: Endogenous protein in H460 or SW460 cell lysates in the Western blots; LexA/B42 fusion in yeast two hybrid; 35S-labelled in vitro translation product (pET-28a) in the pull-down; also called p38DX2; AIMP2 lacking exon 2
- binding result (FUSE-binding protein): no binding
- binding result (Smad2 (human)): no binding

Binder: B3
- binding result [1]: binds
- binding result [2]: binds
- binding result [3]: binds
- binding result [4]: no binding

B4: H5 IgG antibody (antibody, V domains shown)
VH: QEQLVESGGGLVTPGGTLTLTCTASGFTISSYHMTWVRQAPGKGLEWIGVISNSGGTSYANWAKGRFTISKTSTTVDLKITSPTTEDTATYFCVRGVPGINSNLWGQGTLVTISS
VL: AQVLTQTPSSVSAAVGGTVTINCQSSQSVYSGNWLAWYQQKPGQPPKLLIYSTSTLASGVPSRFKGSGSGTQFTLTVSDLECDDAATYYCAGDYDGYKNAFGGGTKVVVKR
notes: also called H5 antibody (IgG); H5 antibody
- binding result [5]: binds
